In test [1] the test system is MUC16 mRNA in human corneal epithelial cells. Briefly: RT-qPCR of mucin mRNA (MUC16) under high osmotic pressure. Particulars: HCEC, 450 mOsM, 20 to 200 ng/ml, particularly 50 to 200 ng/ml, 24 hours; compared to the untreated group. Type of test: cell-based. Here is the method:
First, the human corneal epithelial cells (HCECs, 5th passage) were seeded onto 6 wells at a density of […]. After 24 hours, the HCECs were pre-treated with a medium with different osmotic pressures (314 and 450 mOsM). After 48 hours of incubation, the cells were treated with the composition of the present disclosure having different concentrations of rhHAPLN1 (0, 5, 10, 20, 50, 100, and 200 ng/ml) and Cyclosporine A (0.1 μM), as a control drug, for 24 hours. Then, the cells were washed and sampled to perform RT-qPCR (FIG. 5A).
Total mRNA was purified from the HCECs by using a Qiagen kit. A cDNA was synthesized by using the iScript cDNA synthesis kit. Subsequently, RT-qPCR was performed and result data was expressed as relative expression levels (fold) (FIGS. 5B to 5C).
Background: Quantitative PCR measures a nucleic acid by following its amplification.

Another test deals with rabbit dry eye model. Description: Tear film break up time (TFBUT), benzalkonium chloride-induced dry eye disease model. It is filed as in vivo, New Zealand white rabbits. As to the method: One drop (0.05 ml) of 0.1% benzalkonium chloride (BAC) was administered to both eyes of rabbits twice a day (9:00 and 17:00) for 14 days, and then induction of dry eye was identified by examination of eyes, and the rabbits were classified into groups.
The test substance was dropped into the groups of the rabbit model twice a day (8:30 and 16:30) (Day 15 to 30 (total of 16 days)).
Anesthesia was induced by intramuscular injection of Xylazine and Ketamine, and then one drop of Alcaine Eye Drop was administered and tear and the eye drop remaining therein were removed by using Weck-cel cellulose spear. After putting STT paper on the lower eyelid, a length of a wet region for 5 minutes was measured (STT-2). In addition, stability of the tear film was tested by measuring tear film break up time (TFBUT, measurement of time taken for the tear film to break down). Furthermore, conditions of the cornea and fluorescent staining were identified by a slit test.
In this example, a method of measuring time until black spots appeared at fluorescent stained regions after applying one drop of sodium fluorescein to eyeballs. The black spots may appear within several seconds after blinking and occurs very quickly under the conditions of dry eye disease. That is, stability of the tear film was measured by measuring the tear film break up time (TFBUT, measurement of time taken for the tear film to break down).

Another test has as its system mouse dry eye model. Briefly: Corneal fluorescein score, low-humidity+scopolamine-induced dry eye disease model. It is filed as in vivo, C57BL/6. Here is the method: Corneal fluorescein score assay and tear volume assay were respectively performed on eyeballs of mice treated with the compositions of Preparation Examples 1, 2, and 3 prepared in Example 7 above by using a low-humidity+scopolamine-induced dry eye disease (DED) model.
When obtaining experimental animals, inspection and quarantines were carried out by referring the microbiological monitoring report of a test system provided by the supplier and observing the appearance of the experimental animals. Animals with no apparent abnormalities were brought into a vivarium and acclimated for 2 weeks in an animal room where tests were conducted. During the quarantine and acclimation period of 2 weeks, health condition and suitability for the experiment were evaluated, and then healthy animals were selected. By using only the animals with no abnormalities during the quarantine and acclimation period, dry eye disease was induced and the degree of corneal damage was evaluated by corneal fluorescein staining, and the test groups were classified by a Z-array method according to clinical scores. A dry eye disease test group consisted of eyeballs with a corneal fluorescein stain score of 7 to 15, and a sham group (normal) consisted of eyeballs not having a corneal fluorescein stains core of 5 or more. […]

Some results are limits rather than exact numbers.

B1: hyaluronan and proteoglycan link protein 1 (HAPLN1) (protein, listed as Homo sapiens)
chain: MKSLLLLVLISICWADHLSDNYTLDHDRAIHIQAENGPHLLVEAEQAKVFSHRGGNVTLPCKFYRDPTAFGSGIHKIRIKWTKLTSDYLKEVDVFVSMGYHKKTYGGYQGRVFLKGGSDSDASLVITDLTLEDYGRYKCEVIEGLEDDTVVVALDLQGVVFPYFPRLGRYNLNFHEAQQACLDQDAVIASFDQLYDAWRGGLDWCNAGWLSDGSVQYPITKPREPCGGQNTVPGVRNYGFWDKDKSRYDVFCFTSNFNGRFYYLIHPTKLTYDEAVQACLNDGAQIAKVGQIFAAWKILGYDRCDAGWLADGSVRYPISRPRRRCSPTEAAVRFVGFPDKKHKLYGVYCFRAYN
As to B1, the “expression level of MUC16 (FIG. 5C)” value in test [1] is listed as “significantly increased”. Also, the “increase of TFBUT compared with Restasis” value with rabbit dry eye model (after 10 days, regardless of the concentration of HAPLN1) is “more than by Restasis”. In addition, the “tear film break up time (TFBUT)” value with rabbit dry eye model (eye drop b.i.d., dry eye model less than 10 seconds) is “continuously increased”; in the test with rabbit dry eye model (high concentration (50 μg/ml)), ≥ 30 s. For the same molecule, in the test with mouse dry eye model (after 11 days), the “CFS level compared with Cyclosporine A” value was “reduced the CFS level more than Cyclosporine A”. Besides, the CFS level entry in the test on mouse dry eye model (eye drop 0.5, 5, 50 μg/ml, 5 μL b.i.d., regardless of the concentration) is listed as “consistently decreased”.

The values above are taken from patent US20250152663A1, “COMPOSITION FOR PREVENTION OR TREATMENT OF DRY EYE DISEASE COMPRISING HAPLN1” (HAPLNSCIENCE INC., priority 2021, published 2025).
